The values below come from patent US20210292393A1 (published 2021).

The target of experiment [1] is SARS-CoV-2 full length spike protein, V367F mutant, expressed on CHO cells (SARS-CoV-2, UniProt P0DTC2 14-1273).
The target in experiment [2] is SARS-CoV-2 full length spike protein, D614G mutant, expressed on CHO cells (SARS-CoV-2, UniProt P0DTC2 14-1273).
Experiment [3] concerns the target T1, SARS-CoV-2 full length spike protein, V483A mutant (SARS-CoV-2, UniProt P0DTC2 14-1273).
T1 construct: also called SARS-CoV-2 V483A mutant
As to the kind of experiment: flow cytometry, CHO cells expressing full-length spike V483A. On the technique in general: A flow cytometer gives signals particle by particle.

Experiment [4] addresses SARS-CoV-2 full length spike protein, V483A mutant, expressed on CHO cells (SARS-CoV-2, UniProt P0DTC2 14-1273).
Experiment [5] concerns the target T2, SARS-CoV-2 full length spike protein, V483A mutant, expressed on the surface of CHO cells (SARS-CoV-2, UniProt P0DTC2 14-1273).
Experiment [6] concerns the target T2, SARS-CoV-2 full length spike protein, …. As to the kind of experiment: flow cytometry, CHO cells expressing full-length spike V483A.

B1: antibody 467 (antibody, V domains shown)
VH: QVQLVQSGAEVKKPGASVKVSCKASGYTFISYGISWVRQAPGQGLEWMGWISAYNGNTNYAQKLQGRVTMTTDTSTSTAYMELRSLRSDDTAVYYCARGLWPGYYYGSGSYSAFHIWGQGTMVTVSS
VL: QSALTQPPSASGSPGQSVSISCTGTSSDVGGYNYVSWYQQHPGKAPKLMIYEVSKRPSGVPDRFSGSKSGNTASLTVSGLQAEDEADYYCSSYAGSNKVFGGGTKLTVL
As for B1, the “median fluorescence intensity, fold over isotype control” value (shortened to “median fluorescence intensity, fold”) was 30.6 fold over isotype in experiment [1] and 7.54 fold over isotype in experiment [2].

B2: antibody 443 (antibody, V domains shown)
VH: QMRLEESGPGLVKPSETLSLTCTVAGGSITSSDYFWGWLRQSPGKGLEWIASTYHGGSIQYHPALKSRVTISVDASKNQISLRLSSVTAADTAVYYCARDRGDDGPMGTYYFDHWGQGALVTVSS
VL: QSVLTQPPSVSGAPGQSVTISCAGSSSNIGAGHDVHWYQQIPGTAPKLLICGNTNRPSGVPERFSGSRSGTSASLAITGLQAEDEAVYYCQSYDPSHVFFGTGTKLTVL
As to B2, the binding result in experiment [3] was “no binding”.

B3: antibody 405 (antibody, V domains shown)
VH: not shown
VL: QSALTQPRSVSGSPGQSVTISCTGTSSDVGGYNYVSWYQQHPGKAPKLMIYDVSKRPSGVPDRFSGSKSGNTASLTISGLQAEDEADYYCCSYAGSYNVVFGGGTKLTVL
For the molecule B3, the “median fluorescence fold over isotype control” value (“median fluorescence fold” for short) in experiment [4] was 7.51 fold over isotype.

B4: antibody 465 (antibody, V domains shown)
VH: QITLKESGPTLVKPTQTLTLTCTFSGFSLSTSGVGVGWIRQPPGKALEWLALIYWDDDKHYSPSLKSRLTITKDTSKNQVVLTMTNMDPVDTATYYCAHMYYDILSGYYYGMDVWGQGTTVTVSS
VL: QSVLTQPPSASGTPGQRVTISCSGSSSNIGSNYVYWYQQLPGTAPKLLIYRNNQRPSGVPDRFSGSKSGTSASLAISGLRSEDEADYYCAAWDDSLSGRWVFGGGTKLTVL
Take B4: the results for the “median fluorescence intensity, fold” value in experiment [1] and in experiment [2] were 37.3 fold over isotype and 68.3 fold over isotype, respectively.

B5: antibody 341 (antibody, V domains shown)
VH: QLQLQESGPGLVKPSETLSLTCTVSGGSISSSSYYWGWIRQPPGKGLEWIGSIYYSGSTYYNPSLKSRVTISVDTSKNQFSLKLSSVTAADTAVYYCARRPLRYFDWLTNFDYWGQGTLVTVSS
VL: EIVLTQSPATLSLSPGERATLSCRASQSVSSYLAWYQQKPGQAPRLLIYDASNRATGIPARFSGSGSGTDFTLTISSLEPEDFAVYYCQQRSNWPITFGQGTRLEIK
For B5, in experiment [5], the “median fluorescence intensity, fold” value is 1.01 fold over isotype. In experiment [6], the binding result was “no binding”.

B6: antibody 333 (antibody, V domains shown)
VH: QVHLVESGGGVVLPGRSLRLSCSASQFIFSNYDMHWVRQSPGMGLEWVAGISSDGSDKYYIDSVRGRFTISRDNAKNTLFLQMNSLTTEDTAVYSCAKGGGKFGQYWGRGTLVTVSS
VL: AIQMTQSPSSLSASVGDRVTITCRASQVIRNDLAWFQQKPGEAPNLLVYSASNLQSGVPSRFSGSGSGTDFTLTISSLQPEDFATYYCLQDYSYPYTFGQGTKLDMK
As to B6, in experiment [6], the binding result is given as “no binding”.

B7: antibody 501 (antibody, V domains shown)
VH: QVQLVQSGAEVKKPGASVKVSCKASGYTFTSYYVHWVRQAPGQSLEWMGVISPSTGSTTYAQNFQGRVTMTRDTSTTTVYMELSSLRSEDTAVYYCARDDYYDSTRYFDLWGRGTLVTVSS
VL: QSALTQPASVSGSPGQSISFSCTGTSSDIGAYNYVSWYQQHPGRAPKLMIYDVGNRPSGVSNRFSGSKSGNTASLTISGLQAEDEADYYCSSYTSSSTQVFGTGTKVTVL
For B7, the figures for the “median fluorescence intensity, fold” value in experiment [1] and in experiment [2] were 30 fold over isotype and 46.1 fold over isotype, respectively.

B8: antibody 434 (antibody, V domains shown)
VH: QVQLVQSGAEVKKPGASVQVSCKASGYTFSDYYIFWVRQAPGQGLEWMGCINPKSGGAIYAQRFQGRVTMTRDTSFNTAYMEMNRLGSDDTAVYYCVTRGPPDIAASGFAWHLDVWGQGTTVTVSS
VL: DIVMTQSPLSLPVTPGEPASISCRSSQSLLSSNGYNYLEWYLQKPGQSPQLLMYLGSNRASGVPDRFSGSGSGTDFTLKINRVEAEDVGVYYCMQALQTPLTFGGGTKVEIK
Turning to B8, the binding result in experiment [3] is recorded as “no binding”.

B9: antibody 332 (antibody, V domains shown)
VH: QVTLRESGPALVKPTQTLTLTCTFSGFSLSTSGMCVSWIRQPPGKALEWLALIDWDDDKYYSTSLKTRLTISKDTSKNQVVLTMTNMDPVDTATYYCARIHDDILTGYHYVDYWGQGTLVTVSS
VL: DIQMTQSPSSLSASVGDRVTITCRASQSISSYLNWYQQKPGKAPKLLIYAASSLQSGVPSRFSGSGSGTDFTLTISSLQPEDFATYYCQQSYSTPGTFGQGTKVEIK
Take B9: in experiment [6], the binding result is given as “no binding”.

B10: antibody 378 (antibody, V domains shown)
VH: QVQLVQSGAEVKKPGASVKVSCKASGYTFTSYYMHWVRQAPGQGLEWMGIINPSGGSTSYAQKFQGRVTMTRDTSTSTVYMELSSLRSEDTAVYYCARDSGGMDDFWSGYYSPGGDYWGQGTLVTVSS
VL: QSALTQPASVSGSPGQSITISCTGTSSDVGSYNLVSWYQQHPGKAPKLMIYEGSKRPSGVSNRFSGSKSGNTASLTISGLQAEDEADYYCCSYAGSSTWVFGGGTKLTVL
With B10, in experiment [4], the “median fluorescence fold” value stood at 14.3 fold over isotype.

B11: antibody 502 (antibody, V domains shown)
VH: QVQLVQSGAEVKKPGASVKVSCKASGYTFTSYYMHWVRQAPGQGLEWMGIINPSGGSTSYAQKFQGRVTMTRDTATSTVYMELSSLRSEDTAVYYCARGGGQISMIIVVMDDAFDIWGQGTMVTVSS
VL: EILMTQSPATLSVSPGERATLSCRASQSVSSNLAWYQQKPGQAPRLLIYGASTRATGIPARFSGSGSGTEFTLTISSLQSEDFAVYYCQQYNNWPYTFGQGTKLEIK
In the case of B11, the “median fluorescence intensity, fold” value in experiment [1] came to 51.8 fold over isotype; in experiment [2] it was 77.3 fold over isotype.

B12: antibody 508 (antibody, V domains shown)
VH: EVQLVQSGAEVKKPGATVKISCKVSGYTFTDYYMHWVQQAPGKGLEWMGLVDPEDGETIYAEKFQGRVTITADTSTDTAYMELSSLRSEDTAVYYCAVENMITFGGVIVKRGAFDIWGQGTMVTVSS
VL: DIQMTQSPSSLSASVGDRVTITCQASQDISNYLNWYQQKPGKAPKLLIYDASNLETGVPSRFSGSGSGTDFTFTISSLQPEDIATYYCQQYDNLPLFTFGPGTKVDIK
Turning to B12, the results for the “median fluorescence intensity, fold” value in experiment [1] and in experiment [2] were 2.71 fold over isotype and 3.99 fold over isotype, respectively.

B13: antibody 343 (antibody, V domains shown)
VH: QVQLVESGGDVVQPGTSLRLSCAASGFTFNNYGFHWVRQAPGKGLEWVALISSDGASTHYADSVKGRFTISRDSSVNTLYLQMNSLSLEDTAVYYCATGHCGTTCYYFDYWGQGTLVSVSS
VL: DIQVTQSPSYLSASVGDRVTITCRASQTISTFLQWYQQKVGKAPKLLIYAASTLQSGVPSRFSGSGSGTDFSLTISSLQPEDFATYYCQQSYSAPLSFGGGTKVEIK
B13: the binding result in experiment [6] is “no binding”.

B14: antibody 395 (antibody, V domains shown)
VH: QVQLVQSGSELKKPGASVKLSCQASGYTFSNHAMNWVRQAPGQGLEWMGWINTNTGNPTYAQGFTGRFVFSLDTSVGTAYLHISSLKAEDTAFYYCARASARPGVATNLDFWGQGTLVVVSS
VL: DIQMTQSPSSLSASVGDRVTITCRTSQNIDNYLNWYQQKPGKAPNLLIYAASRLHSGVPSRFSGSGSGTDFTLIISSLQPEDLATYYCQQSYSNPLTFGPGTKVDIR
Turning to B14, the “median fluorescence fold” value in experiment [4] was determined as 8.92 fold over isotype.

B15: antibody 385 (antibody, V domains shown)
VH: QVQLVESGGGVVQPGRSLRLSCAASGFTFSSYAIHWVRQAPGKGLEWVAVISYDGSNKYYADSVKGRFTISRDNSKNTLYLQMNSLRAEDTAVYYCARPRSGSYWGAFDIWGQGTMVTVSS
VL: QSVLTQPPSVSGAPGQRVTISCTGSSSNIGARYDVHWYQQLPGTAPKLLIYGNSNRPSGVPDRFSGSKSGTSASLAITGLQAEDEADYYCQSYDSSLRGVFGGGTKLTVL
Regarding B15, in experiment [4], the “median fluorescence fold” value turned out to be 8.16 fold over isotype.

B16: antibody 482 (antibody, V domains shown)
VH: EVQLVESGGGLVQPGGSLRLSCAASGFTFSSYWMTWVRQAPGKGLEWVANIKQDGSEKYYVDSVKGRFTISRDNAKNSLYLQMNSLRAEDTAVYYCARGVGSWYLGFDYWGQGTLVTVSS
VL: NFMLTQPHSVSESPGKTVTISCTGSSGSIASNYVQWYQQRPGSAPTTVIYEDNQRPSGVPDRFSGSIDSSSNSASLTISGLKTEDEADYYCQSYDGSSYVFGTGTKVTVL
Turning to B16, the “median fluorescence intensity, fold” value stood at 2.89 fold over isotype in experiment [1] and 14.3 fold over isotype in experiment [2].

B17: antibody 351 (antibody, V domains shown)
VH: HVQLVESGGGVVQPGRSLRLSCAASGFISRNYGMEWVRQAPGQGLEWVAGIWYDGSKKYYADSVKGRFTISRDTSKNTLFLQMDSLRAEDTAVFYCATATKTFCGGDCPPGGMDVWGQGTTVTVST
VL: SYVLTQPPSVSVAPGKTAWITCVGNNIESESVHWYQQRPGQAPVLVIYYDSDRPSGIPERFFGSNSGNTATLTISRVEAGDEADYYCQVWDSNSDLMVFGGGTKLTVL
Take B17: in experiment [6], the binding result is “no binding”.

B18: antibody 409 (antibody, V domains shown)
VH: QVTLRESGPALVKPTQTLTLTCTFSGFSLSTSGMCVSWIRQPPGKALEWLALIDWDDDKYYSTSLKTRLTISKDTSKNQVVLTMTNMDPVDTATYYCARTTYYYVSGRRAEFDPWGQGTLVTVSS
VL: NFMLTQPHSVSESPGKTVTISCTGSSGSIASNYVQWYQQRPGSAPTTVIYEDNQRPSGVPDRFSGSIDSSSNSASLTISGLKTEDEADYYCQSYDSSNQGVFGGGTKLTVL
Take B18: the “median fluorescence fold” value in experiment [4] amounted to 9.21 fold over isotype.

B19: antibody 506 (antibody, V domains shown)
VH: QITLKESGPTLVKPTQTLTLTCTFSGFSLSTSGVGVGWIRQPPGKALEWLALIYWDDDKRYSPSLKSRLTITKDTSKNQVVLTMTNMDPVDTATYYCAHHSLSSIFDYWGQGTLVTVSS
VL: QSALTQPASVSGSPGQSITISCTGTSSDVGDYNYVSWYQQHPGKAPKLMIYEVSNRPSGVSNRFSGSKSGNTASLTISGLQAEDEADYYCSSYTSSSTVFGGGTKLTVLG
As for B19, the “median fluorescence intensity, fold” value in experiment [1] worked out at 42.3 fold over isotype; in experiment [2], 69.5 fold over isotype.
